To fix the notation:
B1: M-CSFM: 158 amino acid M-CSF with cysteine at position 31 replaced by serine (SEQ ID NO: 2) (protein)
chain: EEVSEYCSHMIGSGHLQSLQRLIDSQMETSSQITFEFVDQEQLKDPVCYLKKAFLLVQDIMEDTMRFRDNTPNAIAIVQLQELSLRLKSCFTKDYEEHDKACVRTFYETPLQLLEKVKNVFNETKNLLDKDWNIFSKNCNNSFAECSSQGHERQSEGS
B2: M-CSFC31S,M27R: M-CSF double mutant containing both C31S and M27R; monomeric, monospecific c-FMS antagonist (protein)
chain: B1 chain with M27R
B3: M-CSFWT: wild-type human M-CSF, disulfide-bond-linked homodimer which binds and activates c-FMS (protein)
chain: B1 chain with S31C

Positions count from the first letter of the chain named. Names may count otherwise.

The nature of the first data set: Dynamic light scattering (DLS). Type of data set: physicochemical. Particulars: 0.5 mg/ml; angle of 90°. The method, then: Dynamic light scattering (DLS)—The hydrodynamic radii of M-CSFWT, M-CSFC31S and M-CSFC31S,M27R were determined using DLS. The proteins, in a concentration of 0.5 mg/ml, were filtered to remove aggregates and contaminants. Light scattering was measured at an angle of 90° three times, in two different experiments, resulting in a total of six measurements. […] An analysis of the solution was conducted to verify that the most abundant specie was in the size range of 1-10 nm. The peak for this specie was compared for the three different proteins, and the hydrodynamic radius of each was determined as the maximum of the peak.
Next, the size of the M-CSF variants was evaluated in solution. M-CSFWT, M-CSFC31S and M-CSFC31S,M27R at concentrations of 0.5 mg/ml were subjected to dynamic light scattering (DLS) analysis at an angle of 90°. The peaks for the most abundant species in each sample were compared (FIG. 16B), and an estimated hydrodynamic radius was calculated from each peak. […] To confirm that the oligomeric state of M-CSFC31S,M27R is not concentration dependent, all M-CSF variants were subjected to SAXS measurements at concentrations of 3, 5 and 7 mg/ml. Of note is that the Rg values remained within a similar range for M-CSFWT and M-CSFC31S. There was a slight increase in the Rg value of M-CSFC31S,M27R at higher concentrations, presumably due to an increase in interparticle interactions. […] To illustrate the oligomeric states of these three proteins in solution, low-resolution structures were reconstructed from the SAXS data. Ab initio models were reconstructed from SAXS data using the computer program GASBOR and were averaged by the computer program DAMAVER. The crystal structure of the M-CSF dimer and the structure of the monomer were aligned with the obtained SAXS models (yellow, M-CSFWT; green, M-CSFC31S; cyan, M-CSFC31S,M27R) using PyMOL (http://www.pymol.org).
With B1, the hydrodynamic radius came to 3.56±0.24 nm.
In turn, B2 returned a hydrodynamic radius of 2.94±0.10 nm.
For the molecule B3, the hydrodynamic radius was 3.73±0.19 nm.

Another data set can be described thus: Small angle X-ray scattering (SAXS) analysis. Type of data set: physicochemical. Particulars: 3, 5 and 7 mg/ml. As for the experimental part: The scattering intensity was recorded in the interval 0.012<q<0.7 Å−1. The measurements were performed under vacuum at 25° C. All three M-CSF variants were measured at concentrations of 3, 5 and 7 mg/ml. The scattering of the buffer was also measured and subtracted from the scattering of the samples. The magnitude of the scattering vector is described by the following equation: […]
Values for the radius of gyration (Rg) were derived from the small angle part of the SAXS profile (Guinier region, qRg<1.0), in PRIMUS [43]. In this region, Guinier approximation is applicable:
Rg values were also derived using in-house scripts designed to perform an automatic search for the best fitting parameters using GNOM (Svergun, D. I. (1992). J. Appl. Crystallogr. 25, 495-503). CRYSOL ([…] and Koch, M. H. J. (1995) J. Appl. Crystallogr. 28, 768-773) was used to compute the theoretical SAXS spectra based on the M-CSFWT crystal structure (PDB ID code: 3UF2). These spectra served as a reference for reconstruction of the experimental SAXS data. GASBOR (Svergun, D. I., Petoukhov, M. V. and Koch, M. H. J. (2001) Biophys. J. 80, 2946-2953) was used to reconstruct the molecular envelope based on the best GNOM fit obtained from the in-house script. Ten models were calculated for each sample and averaged using DAMAVER (Volkov, V. V. and Svergun, D. I. (2003) J. Appl. Crystallogr. 36, 860-864).
Next, the size of the M-CSF variants was evaluated in solution. M-CSFWT, M-CSFC31S and M-CSFC31S,M27R at concentrations of 0.5 mg/ml were subjected to dynamic light scattering (DLS) analysis at an angle of 90°. The peaks for the most abundant species in each sample were compared (FIG. 16B), and an estimated hydrodynamic radius was calculated from each peak. […] To confirm that the oligomeric state of M-CSFC31S,M27R is not concentration dependent, all M-CSF variants were subjected to SAXS measurements at concentrations of 3, 5 and 7 mg/ml. Of note is that the Rg values remained within a similar range for M-CSFWT and M-CSFC31S. […]
In the case of B1, the “oligomeric state in solution” value was “exist as dimers in solution”.
The same measure, in the same setting: to B2 belongs “is a monomer”; to B3, “exist as dimers in solution”.

Values taken from patent US11976099B2, “Compositions and methods for treatment of bone associated diseases” (THE NATIONAL INSTITUTE FOR BIOTECHNOLOGY IN THE NEGEV LTD., priority 2016, dated 2024).
